Experiment [1] concerns the target T1, human PD-1 recombinant protein (ACROBiosystems) (human, UniProt Q15116 25-167, biotinylated (in the ELISA, captured on streptavidin)).
T1 construct: Analyte in SPR; also called recombinant PD-1; human PD-1 protein
Description: ELISA: biotinylated human PD-1 on streptavidin plate, dilutions of secreted construct, anti-human-Fc-HRP. On the procedure: (§1) The plates were then blocked, and incubated with serial dilutions of the antibodies. Next, anti-human-FC-HRP (Jackson laboratories) was added to the plates and a reaction was developed with TMB substrates. Once color developed H2SO4 was used to end the reaction. Plates were washed with PBST (PBS containing 0.05% Tween-20) between the steps. Each of the mentioned steps was carried out for 1 hour at room temperature. The plates were then read on a spectrophotometer at 450 nm.
(In general: ELISA stands for enzyme-linked immunosorbent assay.)

The target in experiment [2] is T2, human Axl recombinant protein (ACROBiosystems) (human, UniProt P30530 26-449, limits assumed).
T2 construct: Coated on ELISA plates; analyte in SPR; also called recombinant AXL; human AXL protein
Put plainly: ELISA: human AXL recombinant protein on the plate, dilutions of secreted construct, anti-human-Fc-HRP. On the procedure: as §1

The target in experiment [3] is T2, human Axl recombinant protein …. Put plainly: ELISA: recombinant human AXL on the plate, purified antibody 0 to 50 nM, anti-human-Fc-HRP. On the procedure:
as §1
(§2) All four constructs were purified using Ni-NTA resins and diluted to different concentrations prior to ELISA binding analysis. […] To further determine the dissociation constant (KD value) of the mono specific and bi-specific antibodies to their respective targets, the surface plasmon resonance (SPR) method was utilized (using Biorad ProteOn XPR36). The different antibodies were immobilized in independent channels on a SPR sensor prism (ProteOn XPR36 compatible chip), as ligands. […] Based on the association and dissociation interaction between each of the recombinant proteins and the respective antibodies, respective KD values were calculated.

Experiment [4] concerns the target T1, human PD-1 recombinant protein …. Put plainly: SPR (Biorad ProteOn XPR36), antibody immobilised, recombinant PD-1 as analyte 3.125-50 nM.
Description: as §2

Experiment [5] has as its target T2, human Axl recombinant protein …. Description: SPR (Biorad ProteOn XPR36), antibody immobilised, recombinant AXL as analyte 3.125-50 nM.
Description: as §2

Experiment [6] concerns the target T3, human PD-1 receptor overexpressed on Bw-PD-1 reporter cells (fusion of PD-1 with a zeta chain) (human, UniProt Q15116 25-288). Put plainly: cell-based or functional assay.
Experiment [7] concerns the target T4, AXL expressed on HNSCC tumor cells (SCC47, SNU1076, FaDu) (human, UniProt P30530 26-894). Description: cell-based or functional assay.
Experiment [8] concerns the target T3, human PD-1 receptor overexpressed on …. Put plainly: cell-based or functional assay. The source holds these as a separate data set.
Experiment [9] addresses T4, AXL expressed on HNSCC tumor cells …. Description: cell-based or functional assay. The source holds these as a separate data set.
In experiment [10] the target is T1, human PD-1 recombinant protein …. Description: ELISA: biotinylated recombinant human PD-1 on streptavidin plate, purified antibody 0 to 10 nM, anti-human-Fc-HRP. Here is the method:
as §1, §2

The text below walks through data of patent publication US20240417477A1 (B G NEGEV TECHNOLOGIES AND APPLICATIONS LTD AT BEN GURION …, published 2024).

The Kd is a measure of binding affinity in units of concentration. For orientation: koff means the rate constant with which the complex falls apart. As a reminder, the kon is a measure of how fast the partners come together. As a reminder, the EC50 (read off the curve) is the concentration at which the effect is half-maximal.

T1 sequence (Q15116 25-167 limits assumed): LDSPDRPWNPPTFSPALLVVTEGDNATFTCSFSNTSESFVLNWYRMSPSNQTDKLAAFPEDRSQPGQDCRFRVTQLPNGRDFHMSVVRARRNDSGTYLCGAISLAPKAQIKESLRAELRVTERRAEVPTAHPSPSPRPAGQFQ
T3 sequence (Q15116 25-288): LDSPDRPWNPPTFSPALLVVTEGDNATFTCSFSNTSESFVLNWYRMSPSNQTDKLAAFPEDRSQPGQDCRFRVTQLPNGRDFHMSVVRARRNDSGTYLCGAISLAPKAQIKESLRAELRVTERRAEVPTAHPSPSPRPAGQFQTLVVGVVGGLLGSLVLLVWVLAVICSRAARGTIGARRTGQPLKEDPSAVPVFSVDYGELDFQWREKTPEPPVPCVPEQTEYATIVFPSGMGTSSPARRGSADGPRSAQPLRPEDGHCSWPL

B1: Bi-2 bi-specific construct AXL-PD1-Fc (anti-AXL scFv-anti PD1 scFv-Fc) (bispecific antibody)
chain: DIQMTQSPSSLSASVGDRVTITCRASQDVSTAVAWYQQKPGKAPKLLIYSASFLYSGVPSRFSGSGSGTDFTLTISSLQPEDFATYYCQQSYTTPPTFGQGTKVEIKGGGGSGGGGSGGGGSGGGGSEVQLVESGGGLVQPGGSLRLSCAASGFSLSGSWIHWVRQAPGKGLEWVGWINPYRGYAYYADSVKGRFTISADTSKNTAYLQMNSLRAEDTAVYYCAREYSGWGGSSVGYAMDYWGQGTLVGGGGSGGGGSGGGGSGGGGSEIVLTQSPATLSLSPGERATLSCRASQSVSSYLAWYQQKPGQAPRLLIYDASNRATGIPARFSGSGSGTDFTLTISSLEPEDFAVYYCQQSSNWPRTFGQGTKVEIKGGGGSGGGGSGGGGSGGGGSQVQLVESGGGVVQPGRSLRLDCKASGITFSNSGMHWVRQAPGKGLEWVAVIWYDGSKRYYADSVKGRFTISRDNSKNTLFLQMNSLRAEDTAVYYCATNDDYWGQGTLVTVSSGGGGSGGGGSGGGGSGGGGSRSVECPPCPAPPVAGPSVFLFPPKPKDTLMISRTPEVTCVVVDVSHEDPEVKFNWYVDGVEVHNAKTKPREEQYNSTYRVVSVLTVLHQDWLNGKEYKCKVSNKGLPSSIEKTISKAKGQPREPQVYTLPPSREEMTKNQVSLTCLVKGFYPSDIAVEWESNGQPENNYKTTPPVLDSDGSFFLYSKLTVDKSRWQQGNVFSCSVMHEGLHNHYTQKSLSLSPGKHHHHHH
notes: Tandem anti-AXL scFv and anti-PD-1 scFv, engineered human IgG1 Fc, C-terminal His tag; also called BsAbI-AXL/PD-1
Consider B1, for which the binding result in experiment [1] and in [2] was “binds” in each case.

B2: mono-specific anti-PD-1 scFv-Fc PD-1-2 (from Nivolumab) (Fc fusion)
chain: EIVLTQSPATLSLSPGERATLSCRASQSVSSYLAWYQQKPGQAPRLLIYDASNRATGIPARFSGSGSGTDFTLTISSLEPEDFAVYYCQQSSNWPRTFGQGTKVEIKGGGGSGGGGSGGGGSGGGGSQVQLVESGGGVVQPGRSLRLDCKASGITFSNSGMHWVRQAPGKGLEWVAVIWYDGSKRYYADSVKGRFTISRDNSKNTLFLQMNSLRAEDTAVYYCATNDDYWGQGTLVTVSSGGGGSGGGGSGGGGSGGGGS
notes: the tie is by this chain of statements; also called mono-PD-1; mono PD-1; not shown: engineered human IgG1 Fc (hinge, CH2, CH3) of plasmid pFUSE-hIgG1e3-Fc2; C-terminal His tag
As to B2, the binding result in experiment [3] is “no binding (tested: 50 nM)”.

B3: Bi-3 bi-specific construct PD1-Fc-AXL (anti PD1 scFv-Fc-anti AXL scFv) (bispecific antibody)
chain: EIVLTQSPATLSLSPGERATLSCRASQSVSSYLAWYQQKPGQAPRLLIYDASNRATGIPARFSGSGSGTDFTLTISSLEPEDFAVYYCQQSSNWPRTFGQGTKVEIKGGGGSGGGGSGGGGSGGGGSQVQLVESGGGVVQPGRSLRLDCKASGITFSNSGMHWVRQAPGKGLEWVAVIWYDGSKRYYADSVKGRFTISRDNSKNTLFLQMNSLRAEDTAVYYCATNDDYWGQGTLVTVSSGGGGSGGGGSGGGGSGGGGSRSVECPPCPAPPVAGPSVFLFPPKPKDTLMISRTPEVTCVVVDVSHEDPEVKFNWYVDGVEVHNAKTKPREEQYNSTYRVVSVLTVLHQDWLNGKEYKCKVSNKGLPSSIEKTISKAKGQPREPQVYTLPPSREEMTKNQVSLTCLVKGFYPSDIAVEWESNGQPENNYKTTPPVLDSDGSFFLYSKLTVDKSRWQQGNVFSCSVMHEGLHNHYTQKSLSLSPGKGGGGSGGGGSGGGGSGGGGSDIQMTQSPSSLSASVGDRVTITCRASQDVSTAVAWYQQKPGKAPKLLIYSASFLYSGVPSRFSGSGSGTDFTLTISSLQPEDFATYYCQQSYTTPPTFGQGTKVEIKGGGGSGGGGSGGGGSGGGGSEVQLVESGGGLVQPGGSLRLSCAASGFSLSGSWIHWVRQAPGKGLEWVGWINPYRGYAYYADSVKGRFTISADTSKNTAYLQMNSLRAEDTAVYYCAREYSGWGGSSVGYAMDYWGQGTLVHHHHHH
notes: Anti-PD-1 scFv at the N-terminus and anti-AXL scFv at the C-terminus of an engineered human IgG1 Fc, C-terminal His tag; also called BsAbI-AXL/PD-1; BsAb-AXL/PD1 (Bi-3)
In the case of B3, the dissociation constant Kd is 5.82 nM in [4] and 60 nM in experiment [5]. The results for the koff in [4] and in experiment [5] were 0.000743 s⁻¹ and 0.00247 s⁻¹, respectively. For the same molecule, the kon worked out at 128000 M⁻¹ s⁻¹ in [4] and 41100 M⁻¹ s⁻¹ in [5]. The “%Gated 'Doublets & Focused' (image stream, Area BF against Aspect Ratio BF), FaDu-plx GFP cells mixed with DiD-stained Bw-PD-1 cells; same figure: No treatment 690 / 7.6, Combo 442 / 4.9” value in experiment [6] and in [7] was 17.8 %Gated in each case. In addition, the “FaDu GFP / Bw-PD-1 mCherry cell doublets by flow cytometry, against the combination of mono Abs and no treatment” value in experiment [8] and in experiment [9] was 2.5 fold in each case.

B4: Bi-1 bi-specific construct PD1-AXL-Fc (anti PD1 scFv-anti AXL scFv-Fc) (bispecific antibody)
chain: EIVLTQSPATLSLSPGERATLSCRASQSVSSYLAWYQQKPGQAPRLLIYDASNRATGIPARFSGSGSGTDFTLTISSLEPEDFAVYYCQQSSNWPRTFGQGTKVEIKGGGGSGGGGSGGGGSGGGGSQVQLVESGGGVVQPGRSLRLDCKASGITFSNSGMHWVRQAPGKGLEWVAVIWYDGSKRYYADSVKGRFTISRDNSKNTLFLQMNSLRAEDTAVYYCATNDDYWGQGTLVTVSSGGGGSGGGGSGGGGSGGGGSDIQMTQSPSSLSASVGDRVTITCRASQDVSTAVAWYQQKPGKAPKLLIYSASFLYSGVPSRFSGSGSGTDFTLTISSLQPEDFATYYCQQSYTTPPTFGQGTKVEIKGGGGSGGGGSGGGGSGGGGSEVQLVESGGGLVQPGGSLRLSCAASGFSLSGSWIHWVRQAPGKGLEWVGWINPYRGYAYYADSVKGRFTISADTSKNTAYLQMNSLRAEDTAVYYCAREYSGWGGSSVGYAMDYWGQGTLVGGGGSGGGGSGGGGSGGGGSRSVECPPCPAPPVAGPSVFLFPPKPKDTLMISRTPEVTCVVVDVSHEDPEVKFNWYVDGVEVHNAKTKPREEQYNSTYRVVSVLTVLHQDWLNGKEYKCKVSNKGLPSSIEKTISKAKGQPREPQVYTLPPSREEMTKNQVSLTCLVKGFYPSDIAVEWESNGQPENNYKTTPPVLDSDGSFFLYSKLTVDKSRWQQGNVFSCSVMHEGLHNHYTQKSLSLSPGKHHHHHH
notes: Tandem anti-PD-1 scFv (Nivolumab-derived) and anti-AXL scFv (YW327.6S2-derived), engineered human IgG1 Fc (pFUSE-hIgG1e3-Fc2), C-terminal His tag; also called BsAbI-AXL/PD-1; BsAb-AXL/PD1
Consider B4, for which the binding result in experiment [1] is listed as “binds”. For the same molecule, in [3], the “EC50 (read off the curve)” value was approximately 5 nM.

B5: mono-specific anti-AXL scFv-Fc AXL2 (from YW327.6S2) (Fc fusion)
chain: DIQMTQSPSSLSASVGDRVTITCRASQDVSTAVAWYQQKPGKAPKLLIYSASFLYSGVPSRFSGSGSGTDFTLTISSLQPEDFATYYCQQSYTTPPTFGQGTKVEIKGGGGSGGGGSGGGGSGGGGSEVQLVESGGGLVQPGGSLRLSCAASGFSLSGSWIHWVRQAPGKGLEWVGWINPYRGYAYYADSVKGRFTISADTSKNTAYLQMNSLRAEDTAVYYCAREYSGWGGSSVGYAMDYWGQGTLVGGGGSGGGGSGGGGSGGGGS
notes: also called mono-AXL; AXL2 scFv-Fc; not shown: engineered human IgG1 Fc (hinge, CH2, CH3) of plasmid pFUSE-hIgG1e3-Fc2; C-terminal His tag
Regarding B5, the binding result in [10] is listed as “no binding (tested: 10 nM)”. In addition, in experiment [5], the Kd is 20.9 nM, the dissociation rate constant (koff) is 0.00102 s⁻¹ and the on-rate constant (kon) was found to be 49000 M⁻¹ s⁻¹.
